According to patent US20250154238A1, “METHODS AND COMPOSITIONS FOR TREATING AND PREVENTING FIBROSIS” (YALE UNIVERSITY, priority 2022, published 2025):
Entries after “also recorded” stand apart in the source; their conditions may differ.

How the values were obtained:
[1] = target: T1, recombinant human epiregulin (rhEreg) (Homo sapiens, UniProt O14944); experiment: Inhibition of epiregulin-induced proliferation of human foreskin fibroblasts (CyQUANT); assay type: cell-based; details: rhEreg 100 ng/ml
T1 construct: recombinant human epiregulin containing the epidermal growth factor (EGF) domain; purchased R&D Biosciences 1195-EP
T1 sequence (O14944 63-108 limits assumed): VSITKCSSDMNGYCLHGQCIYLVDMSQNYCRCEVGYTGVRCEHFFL
Method: Human foreskin fibroblasts (HFFs) were incubated with recombinant human epiregulin (rhEreg) in Dulbecco's Modified Eagle Medium (DMEM) containing 1% fetal bovine serum (FBS), n=3 per rhEreg concentration (left panel). HFF were incubated in media containing rhEreg 100 ng/ml along with commercially available rat anti-human/mouse epiregulin antibody (middle panel) or hEreg NAb1 (right panel), n=4 (middle panel), n=6 (right panel) per antibody concentration. Data points show mean and standard error, which were fit by interpolating from a sigmoidal standard curve. Proliferation was measured by green fluorescence protein (GFP) fluorescence at day 3 using CyQUANT Direct Cell Proliferation Assay (Invitrogen) on Synergy HTX plate reader (Biotek).
To gauge their ability to inhibit epiregulin, whether the two unique antibodies produced by the hybridoma clones could inhibit recombinant epiregulin protein in vitro was tested. Characteristic of other EGFR ligands, recombinant human epiregulin (same as used for Alloy mouse immunization) induced proliferation of cultured human foreskin fibroblasts (HFF, ATCC #SCRC-1041) (FIG. 5, left panel). Maximal proliferation occurred at 100 ng/ml, so this concentration was used in subsequent inhibition experiments. […]

[2] = target: T2, full-length epiregulin protein (Homo sapiens, UniProt O14944); experiment: HFF growth with increasing antibody in the absence of exogenous EGFR ligands; assay type: cell-based; details: increasing antibody concentrations, no exogenous EGFR ligands
T2 construct: Cultured HFF expressed endogenous full-length epiregulin; endogenous in cells; host or cells: human foreskin fibroblasts (HFF, ATCC #SCRC-1041)
T2 sequence (O14944 63-169): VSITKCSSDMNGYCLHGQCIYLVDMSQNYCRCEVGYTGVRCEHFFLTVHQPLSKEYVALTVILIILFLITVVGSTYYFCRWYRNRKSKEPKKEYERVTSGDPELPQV
Method: HFF were incubated with increasing concentrations of hEreg NAb1 in the absence of exogenous epidermal growth factor receptor (EGFR) ligands.
To gauge their ability to inhibit epiregulin, whether the two unique antibodies produced by the hybridoma clones could inhibit recombinant epiregulin protein in vitro was tested. Characteristic of other EGFR ligands, recombinant human epiregulin (same as used for Alloy mouse immunization) induced proliferation of cultured human foreskin fibroblasts (HFF, ATCC #SCRC-1041) (FIG. 5, left panel). Maximal proliferation occurred at 100 ng/ml, so this concentration was used in subsequent inhibition experiments. The ability of hEreg NAb1 and a commercially available rat anti-human/mouse neutralizing epiregulin antibody (R&D Systems MAB1068) to inhibit epiregulin-induced HFF proliferation was then compared. […] Cultured HFF expressed endogenous full-length epiregulin, but little to no other EGFR ligands. If HFF depend on the expression of epiregulin for growth and survival, inhibition of the endogenously produced protein should reduce their growth. […] Thus, hEreg NAb1 inhibits both the recombinant and full-length human epiregulin proteins.

[3] = target: T3, recombinant mouse epiregulin (rmEreg) (Mus musculus, UniProt Q61521); experiment: Inhibition of HFF proliferation induced by mouse epiregulin; assay type: cell-based; details: rmEreg 100 ng/ml
T3 sequence (Q61521 56-101 limits assumed): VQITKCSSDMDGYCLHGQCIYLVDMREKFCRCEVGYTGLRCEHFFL
Method: HFF were incubated with recombinant mouse epiregulin (rmEreg) for 3 days (left panel). HFF were incubated in media containing rmEreg 100 ng/ml along with rat anti-human/mouse epiregulin antibody (middle panel) or hEreg NAb1 (right panel), n=4 (middle panel), n=6 (right panel) per antibody concentration. Data points show mean and standard error, which were fit by interpolating from a sigmoidal standard curve.
In order to validate the humanized antibody in mouse models of fibrosis, it was necessary to establish whether it cross-reacted with the mouse epiregulin homologue. To setup the assay, if recombinant mouse epiregulin could induce HFF proliferation was tested first, which it did similar to the human protein (FIG. 7, left panel). […] In contrast, hEreg NAb1 required >100-fold higher concentration to inhibit HFF proliferation by mouse epiregulin protein (FIG. 7, right panel). […] These findings are likely due to raising the humanized antibody in mice, which would negatively select out B cells that produce a self-reactive antibody.

[4] = system: other EGFR ligands; experiment: Rescue of HFF growth by other EGFR ligands in presence of hEreg NAb1; assay type: cell-based, human; details: 5 mg/ml hEreg NAb1; recombinant EGFR ligands 0.1, 1, 10 ng/ml; 3 days
Method: HFF were incubated with 5 mg/ml hEreg NAb1 alone and recombinant EGFR ligands at 0.1 ng/ml. 1 ng/ml, and 10 ng/ml for 3 days prior to quantification.
Next it was considered whether hEreg NAb1 could inhibit other EGFR ligands (commercially available from R&D Systems). HFF was incubated with 5 mg/ml of hEreg NAb1 alone, which as discussed above, inhibits epiregulin-driven growth of HFF. Whether addition of the other six EGFR ligands could rescue HFF growth through their activation of EGFR was tested. Compared to the hEreg NAb1 alone control, the lowest concentration tested of each EGFR ligand, 0.1 ng/ml, was sufficient to rescue HFF growth (FIG. 8).

[5] = system: skin biopsies from two patients with sGvHD; experiment: Sclerotic GvHD patient skin explants, fibrosis protein markers in supernatant by ELISA; assay type: cell-based, human; details: 2.5 mg/ml, 10 days
Method: Paired skin biopsies from right arm and left abdomen of two patients with sGvHD were incubated with 2.5 mg/ml hEreg NAb1 or isotype control IgG1 antibody for 10 days. (FIG. 21A) Photos of patient fibrotic skin. (FIGS. 21B-21C) Media was changed every 48 hours and the level of fibrosis protein markers in the supernatant was quantified by ELISA (Abcam kits ab213831, ab210966, ab219046, ab187394, ab179886).
It was then investigated whether hEreg NAb1 could reduce fibrosis similar to the epiregulin neutralizing rat antibody. To investigate whether hEreg NAb1 reduces fibrosis protein markers, hEreg NAb1 was tested on skin biopsies from two patients with the fibrotic form of graft-vs-host disease (sGvHD). Patient I was a person 3 years post stem cell transplant from matched unrelated donor for treatment of myelodysplastic syndrome not on any immunosuppressive therapies. Patient 2 was a person 3 years post stem cell transplant from matched unrelated donor for treatment of acute myelogenous leukemia not on any immunosuppressive therapies. Paired 4 mm skin biopsies from the most affected skin of the right arm of patient 1 and left abdomen of patient 2 were obtained (FIG. 21A). Skin explants were incubated with 2.5 mg/ml hEreg NAb1 or isotype control IgG1 antibody for 10 days.

[6] = skin explants from either patient

- IC50, inhibition of epiregulin-induced HFF proliferation ([1]; day 3): 0.1 to 0.3 µg/mL
- fold higher concentration required to inhibit HFF proliferation by mouse epiregulin protein ([3]; HFF): > 100 fold
B1: hEreg NAb1: humanized epiregulin neutralizing antibody from hybridoma wells M3-5; VH SEQ ID NO: 1, VL SEQ ID NO: 6 (antibody, V domains shown)
VH: HLQLQESGPGLVKSSETLSLTCSVSGGSISSSGYYWGWIRQPPGKGLEWIGSFYYSGNTYYNPSLKSRVTISADTSKSQYSLKLSSVTAADTAVYYCARHPFNWNDHYHYMDVWGNGTTVTVSS
VL: DIQMTQSPSSLSASVGDSVTITCRASQSISNYLNWYQKKPGKAPKVLIYAASSLQSGVPSRFSGSGSGTDFTLTISSLQPEDFATYYCQQSYITSITFGQGTRLEIK
- inhibition of human epiregulin-induced HFF proliferation ([1]; 3 days): inhibited HFF proliferation in a concentration-dependent manner; also recorded: inhibits
- HFF growth / inhibition of endogenous full-length epiregulin [2]: decreased growth was observed; also recorded: inhibits full-length epiregulin protein
- cross-reactivity for mouse epiregulin protein ([3]; HFF proliferation): little cross-reactivity; also recorded: low cross-reactivity
- cross-reactivity with / neutralization of other EGFR ligands [4]: does not cross-react; also recorded: does not neutralize
- fibrosis markers in sclerotic GvHD skin explants ([5]; vs isotype control IgG1): reduces fibrosis markers
- MCP-1 in supernatant vs IgG1 isotype control ([5]; patient 1, right arm): significantly reduced expression
- TIMP1 in supernatant vs IgG1 isotype control ([5]; patient 1, right arm): significantly reduced expression
- TNC in supernatant vs IgG1 isotype control ([5]; patient 1, right arm): significantly reduced expression
- TNC in supernatant vs IgG1 isotype control ([5]; patient 2, left abdomen): significant reduction
- fibronectin (FN) expression [5, 6]: did not reduce expression
- pro-collagen I alpha 1/pro-collagen I N-terminal propeptide (PINP) expression [5, 6]: did not reduce expression
